Experimental findings from PMC9792439 (Biochimica et biophysica acta. General subjects, 2022) are described below.

This experiment concerns the target GST-tagged wild type human UBQLN2 (human, UniProt Q9UHD9 1-624). The experiment in a line: pull-down.

Sequence of GST-tagged wild type human UBQLN2 (Q9UHD9 whole entry): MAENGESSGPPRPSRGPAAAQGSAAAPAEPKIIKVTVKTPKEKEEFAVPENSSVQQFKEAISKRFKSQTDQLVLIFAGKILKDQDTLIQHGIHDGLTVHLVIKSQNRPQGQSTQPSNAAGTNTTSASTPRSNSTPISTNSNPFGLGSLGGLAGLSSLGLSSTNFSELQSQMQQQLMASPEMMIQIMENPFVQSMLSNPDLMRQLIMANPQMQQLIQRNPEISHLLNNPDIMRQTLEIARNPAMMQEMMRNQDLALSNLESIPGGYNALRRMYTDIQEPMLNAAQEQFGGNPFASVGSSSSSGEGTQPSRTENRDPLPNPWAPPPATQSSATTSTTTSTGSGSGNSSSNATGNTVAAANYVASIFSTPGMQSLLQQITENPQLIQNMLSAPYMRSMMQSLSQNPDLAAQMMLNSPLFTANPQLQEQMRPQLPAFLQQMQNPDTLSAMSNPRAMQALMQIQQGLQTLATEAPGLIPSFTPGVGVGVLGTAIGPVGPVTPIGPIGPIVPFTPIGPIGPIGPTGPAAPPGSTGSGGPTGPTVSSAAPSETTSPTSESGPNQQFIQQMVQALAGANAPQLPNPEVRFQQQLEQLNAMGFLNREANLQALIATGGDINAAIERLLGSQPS

B1: HSPA1B ATP-binding domain (1 to 385 aa) with 6 His tag (domain or fragment)
chain: not shown
Take B1: the binding result is given as “binds”.
